Among the data in article PMC9597381, “Molecular determinants of TRAF6 binding specificity suggest that native interaction partners are not optimized for affinity” (Protein Science : A Publication of the Protein Society, 2022) are Kd values, retold here.

One assay deals with TRAF6. The conditions noted are these: reported affinity for TRAF6, ITC; read-out: Kd by isothermal titration calorimetry; cited from earlier work. The text has this:
High‐affinity TRAF6 binders isolated in this work can serve as lead peptides for inhibitor development. TRAF6 signaling is implicated in inflammation and cardiovascular disease.[12], [13], [18] Targeting TRAF6 MATH is reported to improve insulin sensitivity in obese mice, improve heart function in mouse models of non‐ischemic cardiac failure, reduce atherosclerosis, and inhibit osteoclastogenesis and bone resorption.[14], [15], [16], [17] A RANK peptide attached to a protein transduction sequence to promote cell entry is currently sold commercially as a TRAF6 inhibitor (e.g., Novus Biologicals ...
(In general: In ITC the heat of successive injections is recorded.)

Assay [1] deals with T1, monomeric TRAF6 (T6m), TRAF6 MATH domain (Homo sapiens, UniProt Q9Y4K3).
T1 construct: (human TRAF6 residues 350-501) – LE – HHHHHH; made in house; host or cells: E. coli Rosetta2(DE3)
T1 sequence (Q9Y4K3 350-501): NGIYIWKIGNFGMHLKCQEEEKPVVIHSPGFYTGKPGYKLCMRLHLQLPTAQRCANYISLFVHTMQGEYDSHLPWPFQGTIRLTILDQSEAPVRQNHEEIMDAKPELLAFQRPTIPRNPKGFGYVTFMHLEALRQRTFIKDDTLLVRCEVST
Briefly: Biolayer interferometry (BLI), SUMO-peptide on tip, TRAF6 monomer in solution. The following applies: biotinylated SUMO-peptide on streptavidin tip, T6m in solution up to 150 μM; 20 mM Tris pH 8.0, 207 mM NaCl; room temperature; steady-state fit; average of 3 replicate binding curves ± SEM. The text has this:
To further validate the cell‐surface interactions identified in the screen, we measured TRAF6‐peptide binding by biolayer interferometry (BLI), using purified monomeric TRAF6 MATH domain (construct termed T6m) in solution and purified peptides attached to the sensor tip (see Table S1 for construct details). […] The BLI data validate the cell‐surface display results and support the conclusion that top hits from the screen bind with higher affinity than CD40*, which is one of the tightest known TRAF6 peptide binders[19] (Figure 3). Based on these observations, we conclude that despite the screening assay being performed in the environment of the cell surface, and in a multi‐valent context, enrichment sorting returned high‐affinity binders.
Vectors, bacterial cells, and cloning: The expression constructs and cell surface display constructs are detailed in Table S1. The TRAF6 trimeric construct, here termed T6cc, consisted of residues 310–504 of human TRAF6 (including the MATH domain and coiled‐coil trimerization domain), an N‐terminal BAP tag for biotinylation, and a hexahistidine tag for purification. The construct was expressed using a pDW363 vector to ensure biotinylation. A monomeric TRAF6 construct lacking the trimerization domain and BAP tag, here termed T6m, consisted of residues 350–501 of human TRAF6 and a hexahistidine tag. The construct was expressed in a pDW363 vector, although the lack of a BAP tag ensured no biotinylation of this protein. SUMO‐peptide fusion constructs contained a BAP tag, hexahistidine tag, and SUMO tag. The construct was expressed in a pDW363 vector to ensure biotinylation. E. coli strains BL21(DE3), DH5α, and MC1061 were used for protein expression, cloning, and surface display, respectively. For bacterial surface display of TRAF6‐binding peptides, the eCPX vector designed by the Daugherty group[56] was modified at the C‐terminus to append a FLAG sequence, a linker containing a SfiI site, and the CD40* peptide sequence, which included 9 residues resolved in the X‐ray structure of CD40* bound to TRAF6 (PDB ID: 1LB6[19]) plus 8 flanking residues on each side of this core region. The CD40*‐derived sequence used was […].
Protein purification and preparation: T6cc was co‐expressed with the biotin ligase BirA (from the pDW363 vector) in BL21(DE3) E. coli for 5 hours at 37°C. Media was supplemented with 0.05 mM D‐(+)‐biotin. The protein was then purified using Ni^2+‐NTA affinity chromatography followed by gel‐filtration chromatography into a final buffer of 20 mM Tris pH 8.0, 150 mM NaCl, 5% glycerol, 1 mM DTT. Purified protein was concentrated before storing at −80°C in aliquots for later use. Concentrations of T6cc are reported as monomer concentrations. […]
On the technique in general: In BLI a coated tip is dipped into the sample, and binding shifts an interference pattern.

Assay [2] concerns the target RANK peptide (Homo sapiens). Briefly: ITC. The following applies: cited from earlier work.
In assay [3] the target is T2, TRAF6 trimeric construct T6cc (coiled-coil and MATH domains) (human, UniProt Q9Y4K3 310-504, biotin on the BAP tag).
T2 chain: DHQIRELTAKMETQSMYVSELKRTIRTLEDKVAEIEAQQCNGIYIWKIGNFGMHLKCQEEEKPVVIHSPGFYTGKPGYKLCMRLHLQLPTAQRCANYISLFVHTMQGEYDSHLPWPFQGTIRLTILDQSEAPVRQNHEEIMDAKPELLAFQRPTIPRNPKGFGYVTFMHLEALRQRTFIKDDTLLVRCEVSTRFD
Kind of assay: FACS; apparent Kd*, cell-surface display. (In general: A flow cytometer gives signals particle by particle.)

For assay [4], the target named is T2, TRAF6 trimeric construct T6cc …. Kind of assay: FACS.
In assay [5] the target is T3, TRAF6 trimeric construct T6cc (coiled-coil and MATH domains) (human, UniProt Q9Y4K3 310-504, biotin on the BAP tag).
T3 construct: human TRAF6, residues 310-504, including the coiled-coil trimerization domain and the MATH domain; Expressed from a pDW363 vector; Concentrations of T6cc are reported as monomer concentrations; also called trimeric TRAF6; biotinylated TRAF6 homotrimers; source: E. coli BL21(DE3), co-expressed with BirA, purified (Ni-NTA, gel filtration); not shown: BAP tag, N-terminal, kept
T3 sequence (looked up): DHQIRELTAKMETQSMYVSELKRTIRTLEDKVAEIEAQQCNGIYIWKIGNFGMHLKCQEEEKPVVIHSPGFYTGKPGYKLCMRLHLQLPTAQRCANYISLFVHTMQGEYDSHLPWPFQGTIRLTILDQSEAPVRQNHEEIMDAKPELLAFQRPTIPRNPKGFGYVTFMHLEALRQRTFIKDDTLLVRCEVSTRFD
Briefly: flow cytometry on cells; single-clone titration: biotinylated T6cc (0 nM to 3 uM, eight concentrations) on peptide-displaying E. coli, 4°C 60 min in PBS + BSA, detected with streptavidin-PE; apparent cell-surface constant Kd*, multivalent, not likely at equilibrium. The conditions noted are these: one partner purified.

Assay [6] has as its target biotinylated SUMO-peptide fusion of …. Briefly: BLI; biotinylated SUMO-peptides immobilised on streptavidin tips, T6m in solution; room temperature; 20 mM Tris pH 8.0, 207 mM NaCl, 1 mM DTT, 1% glycerol, 0.1% BSA, 0.1% Tween-20; steady-state fit, SUMO-only control subtracted.
Assay [7] deals with biotinylated SUMO-peptide fusion of CD40* (…) (human). The assay is described as above.
The target of assay [8] is … peptide displayed on E. coli via eCPX (human). Kind of assay: flow cytometry on cells; single-clone titration: biotinylated T6cc (0 nM to 3 uM, eight concentrations) on peptide-displaying E. coli, 4°C 60 min in PBS + BSA, detected with streptavidin-PE; apparent cell-surface constant Kd*, multivalent, not likely at equilibrium.

“And” between values parts separate entries of the source, which are not always exact repeats. Equal entries are not always repeated.

On to KQEPQEIDF [CD40*, reference compound], for which the Kd at TRAF6 was 84 µM; in assay [1], 240 ± 23 µM.

As to TRAF6 (from UniProt Q9Y4K3), the Kd in assay [2] is 78 µM.

Turning to LNLPEESDW, in [1], the Kd came to 27.5 µM.

Regarding TNWPEENDW, the Kd in assay [1] is 37.2 µM.

As for RNVPEESDW, the Kd in [1] was 24 ± 3.8 µM.

B1: MNAPVESDW (peptide)
chain: MNAPVESDW
Turning to B1, the Kd in assay [3] and in [4] was 0.11 µM each time.

B2: QNLPTESDW (peptide)
chain: QNLPTESDW
As to B2, the Kd in assay [3] and in assay [4] was 0.0452 µM in each case.

B3: GKYPEENDW (peptide)
chain: GKYPEENDW
Take B3: the Kd in assay [3] and in assay [4] was 0.24 µM in each case.

B4: LQLPEENDW (peptide)
chain: LQLPEENDW
In the case of B4, the Kd in [3] and in assay [4] was 0.498 µM each time.

B5: RNWPTETDW (peptide)
chain: RNWPTETDW
In the case of B5, the Kd in assay [3] and in assay [4] was 0.0583 µM in each case.

B6: TYGPVENSW (peptide)
chain: TYGPVENSW
With B6, the Kd in assay [3] and in assay [4] was 0.581 µM in each case.

B7: HNIPTETSW (peptide)
chain: HNIPTETSW
Turning to B7, the Kd in assay [3] and in [4] was 0.186 µM in each case.

B8: PQDPVETFW (peptide)
chain: PQDPVETFW
Consider B8, for which the Kd in [3] and in assay [4] was 0.374 µM throughout.

B9: SPVPEESTW (peptide)
chain: SPVPEESTW
For B9, the Kd in assay [3] and in assay [4] was 0.332 µM throughout.

B10: CD40* peptide (KQEPQEIDF with 8 flanking CD40 residues on each side) displayed on E. coli via eCPX (peptide)
peptide: PTNKAPHPKQEPQEIDFPDDLPGSNT
notes: 9 residues resolved in PDB 1LB6 plus 8 flanking residues on each side; also called KQEPQEIDF (CD40*); not shown: eCPX (re-engineered OmpX), N-terminal, kept; FLAG, N-terminal, kept
In the case of B10, the Kd in assay [5] is 1.2 µM.

B11: TRAF6 monomeric MATH domain construct T6m (domain or fragment)
chain: NGIYIWKIGNFGMHLKCQEEEKPVVIHSPGFYTGKPGYKLCMRLHLQLPTAQRCANYISLFVHTMQGEYDSHLPWPFQGTIRLTILDQSEAPVRQNHEEIMDAKPELLAFQRPTIPRNPKGFGYVTFMHLEALRQRTFIKDDTLLVRCEVST
In the case of B11, the Kd in [6] was 37 µM and 28 µM and 24 µM; in assay [7], 240 µM.

B12: RNVPEEIYW (peptide)
chain: RNVPEEIYW
For B12, the Kd in assay [3] and in assay [4] was 0.26 µM throughout.

B13: TRAF6 trimeric construct T6cc (coiled-coil and MATH domains) (domain or fragment)
chain: DHQIRELTAKMETQSMYVSELKRTIRTLEDKVAEIEAQQCNGIYIWKIGNFGMHLKCQEEEKPVVIHSPGFYTGKPGYKLCMRLHLQLPTAQRCANYISLFVHTMQGEYDSHLPWPFQGTIRLTILDQSEAPVRQNHEEIMDAKPELLAFQRPTIPRNPKGFGYVTFMHLEALRQRTFIKDDTLLVRCEVSTRFD
modifications: biotin on the BAP tag
As for B13, the Kd in assay [8] was 0.084 µM and 0.046 µM and 0.031 µM.

B14: TRMPVESDW (peptide)
chain: TRMPVESDW
On to B14, for which the Kd in assay [3] and in assay [4] was 0.169 µM in each case.
